Measured values reported in patent US7244430.

B1: SC04-361 (scFv)
scFv: EVQLVQSGAEVKKPGESLKISCKASGFSFSTYWIGWVRQMPGKGLEWMGIIYPADSDTRYSPSFQGQVTISADKSISTAYLQWSSLKASDTAMYYCARLRGPYYDFWNGYRETHDAFNVWGQGTMVTVSSGTGGSGGTGSGTGGSTDVVMTQSPDSLAVSLGERATINCKSSQNILDNSDNKNFLAWYQQKPGQPPKLLIYWASARESGVPDRFSGSGSGTDFTLTISSLQAEDVALYYCQQYYNTPITFGQGTRLEIKR
B2: SC04-374 (scFv)
scFv: QVTLKESGPTLVKPTQTLTLTCTFSGFSLSTSGVGVGWIRQPPGKALEWLAVIYWNDDKLYRPSLKSRLTITKDTSKNQVVLTMTKMDPVDTATYYCAHRHRYYDISGYYRLFSDAFDIWGQGTMVTVSSGTGGSGGTGSGTGGSTQSVVTQPPSVSGAPGQRVTISCTGSSSNIGAGYDVHWYQQLPGTAPKLLIYGNSNRPSGVPDRFSGSKSGTSASLAITGLQAEDEADYYCQSYDSSLSGSVFGGGTKLTVLG
B3: SC04-353 (scFv)
scFv: EVQLVQSGGGVVQPGRSLRLSCAASGFTFSNYAMHWVRQAPGKGLEWVAVISYDGGNKYYADSVKGRFTMSRDNSKNTLYLQMNSLRAEDTAVYYCARDFWSGYSMVDSYYYYMDVWGKGTTVTVSSGTGGSGGTGSGTGGSTETTLTQSPGTLSLSPGERATLSCRASQSVSNTFLAWYQQKPGQAPRLLIYGASSRATGIPDRFSGSGSGTDFTLTISRLEPEDFAAYYCQQYGSSLTFGPGTKVDIKR

What follows are binders tested against whole inactivated rabies virus (assay: phage ELISA, coated whole inactivated rabies virus).

Compared with B1, B2 is lower in OD 492 nm: 0.059 OD 492 nm for the first, 0.056 OD 492 nm for the second.

With B3 the OD 492 nm was 0.057 OD 492 nm.
